Assay results taken from patent US5486595A, “Tumor necrosis factor inhibitors” (Centecor, Inc., priority 1994, dated 1996).
Where a SMILES comes first, the peptide text is derived from it. Where no end group is shown, it is not given here.

Target: T1, human TNFα (Homo sapiens, UniProt P01375)
T1 construct: purchased Biosource, Camarillo, Calif
Experiment: p55 Receptor/IgG Fusion Protein Binding Assay (inhibition of TNFα capture by p55-Ig coated plate)

T1 sequence (P01375 77-233 limits assumed): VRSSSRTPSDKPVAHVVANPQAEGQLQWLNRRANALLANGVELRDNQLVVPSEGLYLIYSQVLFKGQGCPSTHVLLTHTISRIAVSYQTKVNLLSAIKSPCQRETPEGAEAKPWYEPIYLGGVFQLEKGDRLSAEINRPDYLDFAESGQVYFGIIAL

| Compound | inhibition at 1000 µM (peptide 1 mM, TNFα 25 ng/ml, read-out: inhibition of binding of TNFα to p55TNFr-IgG chimeric construct) | inhibition of binding of TNFα to p55TNFr-IgG chimeric construct (peptide 1 mM, TNFα 25 ng/ml) | dose dependent inhibition of TNFα (FIG. 1) (various concentrations of peptide) |
| --- | --- | --- | --- |
| CSCC[C@H](NC(=O)[C@H](CCC(N)=O)NC(=O)[C@H](C)NC(=O)[C@@H](NC(=O)[C@H](CCC(N)=O)NC(=O)[C@H](CC(=O)O)NC(=O)[C@H](Cc1ccc(O)cc1)NC(=O)[C@H](Cc1ccc(O)cc1)NC(=O)[C@@H](N)CCC(=O)O)[C@@H](C)O)C(=O)N[C@@H](C)C(=O)N[C@@H](C)C(=O)N[C@@H](CO)C(=O)N[C@@H](CCCCN)C(=O)N[C@@H](C)C(=O)N[C@@H](CO)C(N)=O [SEQ ID NO:30] (H-EYYDQTAQMAASKAS-NH2) | 59% |  |  |
| SEQ ID NO:45: peptide of the invention that inhibits TNFα; sequence not printed (GTFSNTTSSTDIARP; also: C-terminal blocking group) |  | 73% | dose dependent inhibition |
| SEQ ID NO:50: peptide of the invention that inhibits TNFα; sequence not printed (VAIPGNASRDAVATS) |  | 29% |  |
